Data reported in the supplement of paper PMC12338614.
± gives the uncertainty stated by the source.

B1: library; numbered along this chain (parent)
chain: MEVVDPQQLGMFTEGELMSVGMDTFIHRIDSTEVIYQPRRKRAKLIGKYLMGDLLGEGSYGKVKEVLDSETLCRRAVKILKKKKLRRIPNGEANVKKEIQLLRRLRHKNVIQLVDVLYNEEKQKMYMVMEYCVCGMQEMLDSVPEKRFPVCQAHGYFCQLIDGLEYLHSQGIVHKDIKPGNLLLTTGGTLKISDLGVAEALHPFAADDTCRTSQGSPAFQPPEIANGLDTFSGFKVDIWSAGVTLYNITTGLYPFEGDNIYKLFENIGKGSYAIPGDCGPPLSDLLKGMLEYEPAKRFSIRQIRQHSWFRKKHPPAEAPVPIPPSPDTKDRWRSMTVVPYLEDLHGADEDEDLFDIEDDIIYTQDFTVPGQVPEEEASHNGQRRGLPKAVCMNGTEAAQLSTKSRAEGRAPNPARKACSASSKIRRLSACKQQ

Variants of: B1
Experiment: STK11 functional score (HeLa growth suppression), rescaled enrichment; synonymous median = 1, nonsense median = 0 (normalised score)
Details: with HeLa; variant type: missense
Method in brief: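 Codon-randomised (POPCode) libraries of codon-optimised STK11 were integrated by Bxb1 at an AAVS1 landing pad in HeLa, in three regions each transfected three times. Integrants (BFP-negative, mCherry-positive) were FACS-sorted 4–5 days after electroporation and grown about two weeks; tiled gDNA amplicons were sequenced on NextSeq (~2 million reads per tile). The functional score is the wild-type-corrected post/pre-selection log ratio, rescaled to synonymous and nonsense medians, merged over codons and replicate transfections, with bootstrapped error.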

Variant	STK11 functional score
L182W	0.0906 ± 0.12
S334V	1.31 ± 0.2
Q100W	0.696 ± 0.17
Q100S	1.1 ± 0.18
Q100P	0.999 ± 0.14
R211H	1.32 ± 0.11
T244Y	0.127 ± 0.082
I248P	-0.0931 ± 0.13
D194R	-0.0399 ± 0.12
M136P	-0.132 ± 0.082
M136K	0.279 ± 0.63
M136S	0.0685 ± 0.09
P369Y	1.41 ± 0.32
E374Q	0.822 ± 0.78
F148P	-0.111 ± 0.086
F148K	-0.033 ± 0.18
F148Y	0.892 ± 0.11
S307I	1.02 ± 0.091
S307G	0.664 ± 0.35
I46Y	1.29 ± 0.28
G288Y	0.713 ± 0.46

Variant	STK11 functional score
A397P	1.18 ± 0.49
P387C	1.54 ± 0.24
P387W	1.62 ± 0.29
D258A	1.33 ± 0.76
D68N	1.31 ± 0.8
D68Y	-0.0799 ± 0.081
T212R	1.48 ± 0.21
T212C	1.32 ± 0.41
M289W	-0.296 ± 0.059
R310D	1.6 ± 0.15
I260S	1.44 ± 0.32
D23G	1.54 ± 0.2
S59V	1.55 ± 0.22
S59G	1.65 ± 0.34
S59I	1.31 ± 0.42
E256L	1.52 ± 0.31
M129R	1.13 ± 0.28
H313L	1.48 ± 0.18
C418M	1.54 ± 0.14
I361Y	0.312 ± 0.54
Y156G	0.044 ± 0.076

Variant	STK11 functional score
I424Q	1.55 ± 0.14
S31V	1.58 ± 0.21
A206I	1.46 ± 0.47
L201R	0.929 ± 0.2
A398D	1.18 ± 0.25
A398K	1.53 ± 0.22
G268L	1.56 ± 0.23
D162L	1.04 ± 0.23
G242P	0.0217 ± 0.14
D30T	1.62 ± 0.21
I35C	1.39 ± 0.25
G381F	1.13 ± 0.42
G381T	1.6 ± 0.27
G381K	1.59 ± 0.29
V338I	1.47 ± 0.31
Q123M	1.6 ± 0.17
P217L	0.248 ± 0.24
S240M	0.927 ± 0.66
S240H	1.08 ± 0.12
P319Y	1.46 ± 0.21
P319S	1.4 ± 0.28

Variant	STK11 functional score
L386I	1.14 ± 0.22
E145T	1.54 ± 0.17
E145G	0.981 ± 0.099
A198Y	1.04 ± 0.51
S404G	1.57 ± 0.28
G279L	1.41 ± 0.29
G408R	1.59 ± 0.16
A295G	1.37 ± 0.68
A295H	1.4 ± 0.17
A295C	1.31 ± 0.43
M335H	-0.482 ± 0.11
M335P	1.5 ± 0.2
M335A	1.51 ± 0.16
L167F	1.05 ± 0.23
L167S	0.241 ± 0.14
D352P	1.6 ± 0.14
F309S	0.538 ± 0.12
G180L	1.02 ± 0.094
A200H	1.49 ± 0.32
A200T	1.02 ± 0.82
A200S	0.652 ± 0.15
